Reference: patent US20200392227A1 (LYVGEN BIOPHARMA, published 2020)
Where two headings read alike, the source gives them in different places.

Tests used:
Experiment in all cases: BLI
[1] = biological target: T1, human FcRIIIA-F158 protein (MednaBio, E1036) (human, UniProt P08637 17-208)
T1 construct: Bought; also called FcγRIIIA(F)

[2] = biological target: T2, human FcRIIIB protein (MednaBio, E1037) (human, UniProt O75015 17-200)
T2 construct: Bought; also called FcγRIIIB; FcgRIIIB

[3] = biological target: T1, human FcRIIIA-F158 protein (MednaBio, …); remark: listed apart in the source
[4] = biological target: T2, human FcRIIIB protein (MednaBio, E1037); remark: listed apart in the source
[5] = biological target: T1, human FcRIIIA-F158 protein (MednaBio, …); remark: listed apart in the source
How it was run: (§1)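 Binding was measured by biolayer interferometry on an Octet Red96 System, with commercial human Fc receptor proteins loaded at 20 μg/mL onto anti-penta-HIS biosensors. Sensors were dipped into an 8-point 1:3 dilution series of test IgG starting at 300 nM in PBS with 0.1% BSA and 0.02% Tween-20. Fcγ receptor assays ran at pH 7.2 and FcRn assays at pH 6. Kd, kon and koff came from global fitting to a 1:1 binding model.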

[6] = biological target: T2, human FcRIIIB protein (MednaBio, E1037); remark: listed apart in the source
How it was run: as §1

[7] = biological target: T1, human FcRIIIA-F158 protein (MednaBio, …); remark: listed apart in the source
How it was run: as §1

[8] = biological target: T2, human FcRIIIB protein (MednaBio, E1037); remark: listed apart in the source
How it was run: as §1

[9] = biological target: T3, human FcRI protein (MednaBio, E1031) (human, UniProt P12314 16-288, limits assumed)
T3 construct: Bought; loaded on anti-penta-HIS biosensors; also called FcγRI
T3 sequence (P12314 16-288 limits assumed): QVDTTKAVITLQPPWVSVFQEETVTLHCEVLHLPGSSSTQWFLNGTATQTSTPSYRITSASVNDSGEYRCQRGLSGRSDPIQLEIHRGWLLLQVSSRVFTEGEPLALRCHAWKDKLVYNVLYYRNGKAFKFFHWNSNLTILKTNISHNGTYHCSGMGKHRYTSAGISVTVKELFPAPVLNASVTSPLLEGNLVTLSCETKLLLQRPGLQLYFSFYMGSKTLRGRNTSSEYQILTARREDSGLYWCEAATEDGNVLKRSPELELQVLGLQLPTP
How it was run: as §1

[10] = biological target: T4, human FcRIIA protein (MednaBio, E1033) (human, UniProt P12318 34-218, limits assumed)
T4 construct: Bought; also called FcγRIIA
T4 sequence (looked up): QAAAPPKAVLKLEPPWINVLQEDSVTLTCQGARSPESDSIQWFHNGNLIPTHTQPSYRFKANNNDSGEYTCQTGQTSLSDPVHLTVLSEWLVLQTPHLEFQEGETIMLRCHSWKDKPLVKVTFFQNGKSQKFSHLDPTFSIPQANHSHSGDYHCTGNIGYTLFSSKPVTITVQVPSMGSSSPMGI
How it was run: as §1

[11] = biological target: T5, human FcRIIB/C protein (MednaBio, E1034) (human, UniProt P31994 43-217, limits assumed)
T5 construct: Bought as FcRIIB/C; also called FcγRIIB; CD32B
T5 sequence (looked up): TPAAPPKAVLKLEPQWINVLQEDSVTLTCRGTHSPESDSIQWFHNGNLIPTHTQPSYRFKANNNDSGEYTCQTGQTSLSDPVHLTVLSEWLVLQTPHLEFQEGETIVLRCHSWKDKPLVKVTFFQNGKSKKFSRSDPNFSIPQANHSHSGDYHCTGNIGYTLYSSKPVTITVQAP
How it was run: as §1

[12] = biological target: T6, human FcRIIIA-V158 protein (MednaBio, E1035) (human, UniProt P08637 17-208)
T6 construct: Bought; also called FcγRIIIA(V); FcgRIIIA(V)
T6 sequence (P08637 17-208 F176V): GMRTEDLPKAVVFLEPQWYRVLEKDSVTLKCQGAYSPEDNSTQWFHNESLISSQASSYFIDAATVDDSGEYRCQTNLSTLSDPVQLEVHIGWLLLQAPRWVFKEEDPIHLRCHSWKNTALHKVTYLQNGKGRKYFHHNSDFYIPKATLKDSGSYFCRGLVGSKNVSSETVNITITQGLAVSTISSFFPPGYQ
How it was run: as §1

[13] = biological target: T7, human FcRn protein (MednaBio, E1032) (human, UniProt P55899 24-297; P61769 21-119)
T7 construct: Bought; assays at pH 6
T7 sequence (P55899 24-297 limits assumed, form in doubt, chain 1 of 2): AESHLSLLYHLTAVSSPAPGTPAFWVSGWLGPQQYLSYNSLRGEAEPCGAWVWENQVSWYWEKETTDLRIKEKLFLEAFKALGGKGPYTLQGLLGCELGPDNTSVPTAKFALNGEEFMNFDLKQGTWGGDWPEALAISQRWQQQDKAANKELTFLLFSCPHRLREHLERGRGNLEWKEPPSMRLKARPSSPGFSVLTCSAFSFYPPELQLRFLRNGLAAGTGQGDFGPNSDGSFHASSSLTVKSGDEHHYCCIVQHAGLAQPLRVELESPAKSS
T7 sequence (P61769 21-119 limits assumed, form in doubt, chain 2 of 2): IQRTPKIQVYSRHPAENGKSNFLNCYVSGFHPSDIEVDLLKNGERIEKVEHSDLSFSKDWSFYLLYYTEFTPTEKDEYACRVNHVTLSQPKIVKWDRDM
How it was run: as §1

T1 sequence (P08637 17-208 limits assumed): as the sequence (P08637 17-208 F176V) above, with V160F counted along it
T2 sequence (O75015 17-200 limits assumed): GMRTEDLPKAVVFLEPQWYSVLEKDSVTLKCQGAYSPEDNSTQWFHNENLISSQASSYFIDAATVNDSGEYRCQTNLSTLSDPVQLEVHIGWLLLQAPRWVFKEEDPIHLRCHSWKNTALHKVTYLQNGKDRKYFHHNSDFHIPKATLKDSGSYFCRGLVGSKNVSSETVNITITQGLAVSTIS

B1: wild-type human IgG1 control (antibody)
heavy: not shown
light: SYELTQPPSVSVSPGQTASITCSGDNIGDQYAHWYQQKPGQSPVLVIYQDKNRPSGIPERFSGSNSGNTATLTISGTQAMDEADYYCATYTGFGSLAVFGGGTKLTVLGQPKAAPSVTLFPPSSEELQANKATLVCLISDFYPGAVTVAWKADSSPVKAGVETTTPSKQSNNKYAASSYLSLTPEQWKSHRSYSCQVTHEGSTVEKTVAPTECS
notes: Control IgG
Question: Which Kd [1] does the source give for B1 here?
Answer: 0.12 µM

Question: And the koff [1]?
Answer: 0.02 s⁻¹

Question: And the kon [1]?
Answer: 170000 M⁻¹ s⁻¹

Question: And the Kd [2]?
Answer: 0.13 µM

Question: What about the koff [2] of the same binder?
Answer: 0.027 s⁻¹

Question: And the kon [2]?
Answer: 210000 M⁻¹ s⁻¹

Question: What about the Kd [3] of the same binder?
Answer: 0.12 µM

Question: What about the koff [3] of the same binder?
Answer: 0.02 s⁻¹

Question: And the kon [3]?
Answer: 170000 M⁻¹ s⁻¹

Question: What about the Kd [4] of the same binder?
Answer: 0.13 µM

Question: And the koff [4]?
Answer: 0.027 s⁻¹

Question: And the kon [4]?
Answer: 210000 M⁻¹ s⁻¹

Question: And the Kd [5]?
Answer: 0.12 µM

Question: What about the koff [5] of the same binder?
Answer: 0.02 s⁻¹

Question: And the kon [5]?
Answer: 170000 M⁻¹ s⁻¹

Question: What about the Kd [6] of the same binder?
Answer: 0.13 µM

Question: What about the koff [6] of the same binder?
Answer: 0.027 s⁻¹

Question: And the kon [6]?
Answer: 210000 M⁻¹ s⁻¹

Question: And the Kd [7]?
Answer: 0.12 µM

Question: And the koff [7]?
Answer: 0.02 s⁻¹

Question: What about the kon [7] of the same binder?
Answer: 170000 M⁻¹ s⁻¹

Question: What about the Kd [8] of the same binder?
Answer: 0.13 µM

Question: And the koff [8]?
Answer: 0.027 s⁻¹

Question: And the kon [8]?
Answer: 210000 M⁻¹ s⁻¹

B2: wild-type human IgG4 control (antibody)
heavy: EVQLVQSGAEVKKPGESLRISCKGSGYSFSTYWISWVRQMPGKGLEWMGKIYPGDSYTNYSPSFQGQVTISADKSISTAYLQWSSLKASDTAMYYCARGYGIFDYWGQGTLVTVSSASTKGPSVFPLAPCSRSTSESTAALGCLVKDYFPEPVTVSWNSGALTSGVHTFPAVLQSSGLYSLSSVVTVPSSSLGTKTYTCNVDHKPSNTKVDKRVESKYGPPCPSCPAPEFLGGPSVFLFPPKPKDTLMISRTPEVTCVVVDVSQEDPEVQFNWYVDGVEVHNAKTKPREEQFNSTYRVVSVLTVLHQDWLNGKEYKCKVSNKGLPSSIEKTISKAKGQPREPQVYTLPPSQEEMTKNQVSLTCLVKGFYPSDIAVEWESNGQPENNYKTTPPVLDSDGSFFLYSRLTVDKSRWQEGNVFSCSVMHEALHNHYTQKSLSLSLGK
light: B1 light
notes: Control IgG
Question: B2 was tested. Which Kd [9] did it give?
Answer: 0.0048 µM

Question: And the koff [9]?
Answer: 0.0017 s⁻¹

Question: And the kon [9]?
Answer: 360000 M⁻¹ s⁻¹

Question: What about the Kd [10] of the same binder?
Answer: 0.4 µM

Question: And the koff [10]?
Answer: 0.055 s⁻¹

Question: What about the kon [10] of the same binder?
Answer: 140000 M⁻¹ s⁻¹

Question: And the Kd [11]?
Answer: 0.4 µM

Question: And the koff [11]?
Answer: 0.05 s⁻¹

Question: What about the kon [11] of the same binder?
Answer: 140000 M⁻¹ s⁻¹

Question: And the Kd [12]?
Answer: 0.55 µM

Question: And the koff [12]?
Answer: 0.092 s⁻¹

Question: And the kon [12]?
Answer: 170000 M⁻¹ s⁻¹

Question: And the Kd [13]?
Answer: 0.018 µM

Question: And the koff [13]?
Answer: 0.012 s⁻¹

Question: What about the kon [13] of the same binder?
Answer: 640000 M⁻¹ s⁻¹
